Patent US20190023748A1 (NAVIGEN, published 2019)
Bridge positions count the residues as written; N and C are the ends. Square brackets hold non-standard residues; d marks the D form. Primed or numbered codes have the meaning given here. PEG4′ = not defined here

Tests used:
Experiment in all cases: cell-based or functional assay
[1] = biological target: HIV-1 gp41 of isolate KNH1209 (clade A) (HIV-1 isolate KNH1209)
[2] = biological target: HIV-1 gp41 of isolate BZ167 (clade B) (HIV-1 isolate BZ167)
[3] = biological target: HIV-1 gp41 of isolate J32228M4 (clade D) (HIV-1 isolate J32228M4)
[4] = biological target: HIV-1 gp41 of isolate 56313 (clade C) (HIV-1 isolate 56313)
[5] = biological target: HIV-1 gp41 of isolate SE364/GS015 (clade C) (HIV-1 isolate SE364/GS015)
[6] = biological target: HIV-1 gp41 of isolate 57128 (clade D) (HIV-1 isolate 57128)
[7] = biological target: HIV-1 gp41 of isolate NI1149 (AE) (HIV-1 isolate NI1149)
[8] = biological target: HIV-1 gp41 of isolate 55815 (AG) (HIV-1 isolate 55815)
[9] = biological target: HIV-1 gp41 of isolate KSM4030 (clade A) (HIV-1 isolate KSM4030)
[10] = biological target: HIV-1 gp41 of isolate NI1046 (AE) (HIV-1 isolate NI1046)
[11] = biological target: HIV-1 gp41 of isolate SM145/GS016 (clade C) (HIV-1 isolate SM145/GS016)
[12] = biological target: HIV-1 gp41 of isolate NP1695 (AE) (HIV-1 isolate NP1695)
[13] = biological target: HIV-1 gp41 of isolate BX08 (clade B) (HIV-1 isolate BX08)
[14] = biological target: HIV-1 gp41 of isolate KNH1207 (clade A) (HIV-1 isolate KNH1207)
[15] = biological target: HIV-1 gp41 of isolate CAM0008 (AG) (HIV-1 isolate CAM0008)
[16] = biological target: HIV-1 gp41 of isolate CAM0015 (AG) (HIV-1 isolate CAM0015)
[17] = biological target: HIV-1 gp41 of isolate NP1538 (clade B) (HIV-1 isolate NP1538)
[18] = biological target: HIV-1 gp41 of isolate PBL288 (clade C) (HIV-1 isolate PBL288)
[19] = biological target: HIV-1 gp41 of isolate BK132/GS009 (clade B) (HIV-1 isolate BK132/GS009)
[20] = biological target: HIV-1 gp41 of isolate KNH1144 (clade A) (HIV-1 isolate KNH1144)
[21] = biological target: HIV-1 gp41 of isolate TZA246 (clade C) (HIV-1 isolate TZA246)
[22] = biological target: HIV-1 gp41 of isolate DJ263/GS003 (AG) (HIV-1 isolate DJ263/GS003)
[23] = biological target: HIV-1 gp41 of isolate D26830M4 (clade D) (HIV-1 isolate D26830M4)
[24] = biological target: HIV-1 gp41 of isolate KER2008 (clade A) (HIV-1 isolate KER2008)
[25] = biological target: HIV-1 gp41 of isolate E08364M4 (clade D) (HIV-1 isolate E08364M4)
[26] = biological target: HIV-1 gp41 of isolate NI1052 (AE) (HIV-1 isolate NI1052)
[27] = biological target: HIV-1 gp41 of isolate A07412M1 (clade D) (HIV-1 isolate A07412M1)
[28] = biological target: HIV-1 gp41 of isolate NP1525 (AE) (HIV-1 isolate NP1525)
[29] = biological target: HIV-1 gp41 of isolate 20635-4 (clade C) (HIV-1 isolate 20635-4)
[30] = biological target: HIV-1 gp41 of isolate US4/GS007 (clade B) (HIV-1 isolate US4/GS007)

B1: CPT31 (cholesterol-PIE12-2-trimer with PEG32 fourth-arm spacer) (peptide)
peptide: Ac-[dH][dP][dC][dD][dY][dP][dE][dW][dQ][dW][dL][dC][dE][dL]G[PEG4′]K-NH2
modifications: disulfide 3-12 (inferred); not fully specified (some residues); numbers in words are those of the source; also: PIE12-2 trimer on scaffold, fourth arm PEG28 + PEG4 with cholesteryl carbamate
1 nM inhibition [1]: 94.3% | 10 nM inhibition [1]: 95.2% | 1 nM inhibition [2]: 99.4% | 10 nM inhibition [2]: 99.8% | 1 nM inhibition [3]: 96.1% | 10 nM inhibition [3]: 98% | 1 nM inhibition [4]: 97.9% | 10 nM inhibition [4]: 99.3% | 1 nM inhibition [5]: 91.6% | 10 nM inhibition [5]: 97.7% | 1 nM inhibition [6]: 35.2% | 10 nM inhibition [6]: 37.3% | 1 nM inhibition [7]: 92.9% | 10 nM inhibition [7]: 97.4% | 1 nM inhibition [8]: 98.8% | 10 nM inhibition [8]: 99.5% | 1 nM inhibition [9]: 93.6% | 10 nM inhibition [9]: 95.6% | 1 nM inhibition [10]: 99.1% | 10 nM inhibition [10]: 99.7% | 1 nM inhibition [11]: 30.6% | 10 nM inhibition [11]: 75.7% | 1 nM inhibition [12]: 95.7% | 10 nM inhibition [12]: 97% | 1 nM inhibition [13]: 94.2% | 10 nM inhibition [13]: 99.5% | 1 nM inhibition [14]: 92.1% | 10 nM inhibition [14]: 98.2% | 1 nM inhibition [15]: 96.8% | 10 nM inhibition [15]: 99.7% | 1 nM inhibition [16]: 96% | 10 nM inhibition [16]: 97% | 1 nM inhibition [17]: 95% | 10 nM inhibition [17]: 99.4% | 1 nM inhibition [18]: 3% | 10 nM inhibition [18]: 12% | 1 nM inhibition [19]: 99.7% | 10 nM inhibition [19]: 99.8% | 1 nM inhibition [20]: 78.2% | 10 nM inhibition [20]: 80.6% | 1 nM inhibition [21]: 98.3% | 10 nM inhibition [21]: 98.4% | 1 nM inhibition [22]: 96.7% | 10 nM inhibition [22]: 99.2% | 1 nM inhibition [23]: 95.3% | 10 nM inhibition [23]: 98.5% | 1 nM inhibition [24]: 84.1% | 10 nM inhibition [24]: 85.3% | 1 nM inhibition [25]: 50.7% | 10 nM inhibition [25]: 58.6% | 1 nM inhibition [26]: 98% | 10 nM inhibition [26]: 99.7% | 1 nM inhibition [27]: 92% | 10 nM inhibition [27]: 96.7% | 1 nM inhibition [28]: 98.8% | 10 nM inhibition [28]: 99.3% | 1 nM inhibition [29]: 99% | 10 nM inhibition [29]: 99.6% | 1 nM inhibition [30]: 91.1% | 10 nM inhibition [30]: 98.7%
